Experimental data as given in patent US20040091992A1.

Biological target: Myc tagged Cdc42HsV12 (constitutively active, expressed in microinjected cells) (UniProt P60953)
Assay: cell-based or functional assay

Myc tagged Cdc42HsV12 (constitutively active, expressed in microinjected cells), sequence (P60953 other isoform, or with tags, fused parts or gaps): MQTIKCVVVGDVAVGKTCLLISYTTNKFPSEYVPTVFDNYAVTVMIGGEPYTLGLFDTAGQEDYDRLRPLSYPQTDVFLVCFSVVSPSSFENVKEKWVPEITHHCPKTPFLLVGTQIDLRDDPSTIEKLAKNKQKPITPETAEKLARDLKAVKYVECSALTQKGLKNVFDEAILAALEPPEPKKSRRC

sustained formation of actin enriched filopodia protrusions in co-injected PAE cells (% of the injected cells): > 70
Substance: HA tagged PAK4 (wild type, expressed in cells from the SRalpha vector) (from UniProt O96013 1-591)
